Several values for one entry are separate records, joined by “and”; a condition that tells them apart may be missing. Identical values can stand only once.
Tests used:
[1] = substrate: N[C@@H](CCC[C@H](N)C(=O)O)C(=O)O; assay: purified protein, by the assay type; conditions: other: reverse assay
[2] = substrate: O=C(O)CCC(=O)C(=O)O; assay: purified protein, by the assay type; conditions: other: reverse assay
[3] = substrate: N[C@@H](CCC(=O)O)C(=O)O; assay: Quantitative forward and reverse assays of purified LL-DAP transaminases (Example III); type: biochemical, Syntrophobacter fumaroxidans MPOB; conditions: other: forward assay
[4] = substrate: O=C(O)C1=N[C@H](C(=O)O)CCC1; assay: as above; type: biochemical, Syntrophobacter fumaroxidans MPOB; conditions: other: forward assay
[5] = substrate: N[C@@H](CCC(=O)O)C(=O)O; assay: purified protein, by the assay type; conditions: other: forward assay
[6] = substrate: O=C(O)C1=N[C@H](C(=O)O)CCC1; assay: purified protein, by the assay type; conditions: other: forward assay
[7] = substrate: N[C@@H](CCC(=O)O)C(=O)O; assay: Quantitative forward and reverse assays of purified LL-DAP transaminases (Example III); type: biochemical, Bacteroides fragilis NCTC9343; conditions: other: forward assay
Source text: (§1) All orfs were processed identically for expression in E. coli. The orfs were amplified by PCR using the indicated primers. The resulting DNA fragment was digested with BamHI and SalI and cloned into pET30b. The pET30b clone was sequenced. This plasmid was transformed into E. coli BL21-CodonPlus®-RIPL for expression and purification of the recombinant protein. For functional complementation experiments, the expression cassette was subcloned from pET30b into pBAD33 (Guzman et al., 1995) using XbaI and SalI. Using these enzymes the expression cassette included the entire orf, the His-Tag coding sequence and the ribosome binding site from pET30b. pBAD33 provided an arabinose-regulated promoter.
(§2) For protein expression the E. coli strains were grown on LB at 37° C. to an OD600 nm of 0.5 and protein expression was then induced with 1 mM IPTG for 4 hr at 25° C. Cells were lysed by sonication in a solution of 50 mM sodium phosphate and 300 mM NaCl (pH 8.0). Metabolites in the extract were removed by buffer exchange using an Amicon Ultra 30,000 MWCO ultrafilter and sodium phosphate/NaCl buffer, and the concentrated soluble protein sample was used for measurement of enzyme activity as an initial assessment of enzyme function. When the recombinant protein was to be purified a larger cell culture was grown and lysed as described above, but the buffer exchange step was not carried out. […] The pure protein was then concentrated in an Amicon Ultra 30,000 MWCO ultrafilter, replacing the elution buffer with 100 mM HepesKOH, pH 7.6.
(§3) Enzyme assays were performed as described above in Examples I and II.
(§4) The catalytic properties of sll0480, BF2643, Dhaf—3980, MTH52, and SfumDRAFT0821 were studied in greater detail using purified enzymes to determine their kinetic constants using quantitative forward and reverse assays.

[8] = substrate: N[C@@H](CCC[C@H](N)C(=O)O)C(=O)O; assay: as above; type: biochemical, Bacteroides fragilis NCTC9343; conditions: other: reverse assay
Source text: as §1, §2, §3, §4

[9] = substrate: O=C(O)C1=N[C@H](C(=O)O)CCC1; assay: as above; type: biochemical, Bacteroides fragilis NCTC9343; conditions: other: forward assay
Source text: as §1, §2, §3, §4

[10] = coupled with 2-OG dehydrogenase, pH 7.5, apparent Km, pH 7.5, 30.0 °C
[11] = Ddh-coupled, pH 7.5, 30° C., apparent Km, pH 7.5, 30.0 °C

B1: Syntrophobacter fumaroxidans LL-DAP transaminase SfumDRAFT_0821 (Syntrophobacter fumaroxidans MPOB) (protein)
chain: MAFVKAERLKLLPPYLFQEIDRLKAELTAKGVDVINLGVGDPDLPTPDHIIARLKTAAEDPSTHQYPSYSGMNDFKVSVAGWYKRRFGVELDPLSEVLTLIGSKEGLAHFPLAVINPGDLALVPTPAYPVYHVATMFAGGESYFMPLVRENGFLPDLDSIPADVARRAKVMFINYPNNPTGATAERDFFEKVIAFAREYDVIVCHDAAYTEMAFGGYRPLSFLELPGAGEVGVEFHSLSKTYNMTGWRLGFAVGNADILAGLGQVKSNIDSGAFNAVQWAGITALEGDQGCVVEMQRIYKERLDILIEGLKRIGLHPEVPRATFYVWCPTPPGYSSKDFSSLLLREAGIVATPGSGFGAPGEGYIRMALTVDKERVREAVERMRKLSF
**Q.** What does the source list for B1?
**A.** Km [1]: 29 µM; Km [2]: 700 µM; Km [3]: 700 µM; Km [4]: 12 µM

B2: Arabidopsis thaliana LL-DAP-AT (At4g33680), wild type, recombinant (lacks first 39 amino acids, hexa-His and S-TAG), SEQ ID NO: 7 (Arabidopsis thaliana) (protein)
chain: VNTCKCVATPQEKIEYKTKVSRNSNMSKLQAGYLFPEIARRRSAHLLKYPDAQVISLGIGDTTEPIPEVITSAMAKKAHELSTIEGYSGYGAEQGAKPLRAAIAKTFYGGLGIGDDDVFVSDGAKCDISRLQVMFGSNVTIAVQDPSYPAYVDSSVIMGQTGQFNTDVQKYGNIEYMRCTPENGFFPDLSTVGRTDIIFFCSPNNPTGAAATREQLTQLVEFAKKNGSIIVYDSAYAMYMSDDNPRSIFEIPGAEEVAMETASFSKYAGFTGVRLGWTVIPKKLLYSDGFPVAKDFNRIICTCFNGASNISQAGALACLTPEGLEAMHKVIGFYKENTNIIIDTFTSLGYDVYGGKNAPYVWVHFPNQSSWDVFAEILEKTHVVTTPGSGFGPGGEGFVRVSAFGHRENILEACRRFKQLYK
**Q.** B2 was tested. Which Km ([5]; coupled with 2-OG dehydrogenase, pH 7.5, apparent Km, pH 7.5) did it give?
**A.** 2000 µM

**Q.** What about the Km [5, 10] of the same protein?
**A.** 1900 ± 100 µM

**Q.** What about the Km [1, 11] of the same protein?
**A.** 67 ± 2 µM

**Q.** And the Km [6, 10]?
**A.** 38 ± 4 µM

**Q.** And the Km [2, 11]?
**A.** 8300 µM and 8700 ± 300 µM

B3: Arabidopsis thaliana LL-DAP transaminase At4g33680, SEQ ID NO: 7 (Arabidopsis thaliana) (protein)
chain: VNTCKCVATPQEKIEYKTKVSRNSNMSKLQAGYLFPEIARRRSAHLLKYPDAQVISLGIGDTTEPIPEVITSAMAKKAHELSTIEGYSGYGAEQGAKPLRAAIAKTFYGGLGIGDDDVFVSDGAKCDISRLQVMFGSNVTIAVQDPSYPAYVDSSVIMGQTGQFNTDVQKYGNIEYMRCTPENGFFPDLSTVGRTDIIFFCSPNNPTGAAATREQLTQLVEFAKKNGSIIVYDSAYAMYMSDDNPRSIFEIPGAEEVAMETASFSKYAGFTGVRLGWTVIPKKLLYSDGFPVAKDFNRIICTCFNGASNISQAGALACLTPEGLEAMHKVIGFYKENTNIIIDTFTSLGYDVYGGKNAPYVWVHFPNQSSWDVFAEILEKTHVVTTPGSGFGPGGEGFVRVSAFGHRENILEACRRFKQLYK
**Q.** Which results are given for B3?
**A.** Km [5]: 1400 µM; Km [1]: 62 µM; Km [6]: 25 µM; Km [2]: 1400 µM

B4: Bacteroides fragilis LL-DAP transaminase Bf2643 (Bacteroides fragilis YCH46) (protein)
chain: MALVNEHFLKLPGSYLFSDIAKKVNTFKITHPKRDIIRLGIGDVTRPLPKACIEAMHKAVEEMTSAETFRGYGPEQGYDFLIEAIIKNDYAPRGIHLSPTEVFVNDGAKSDTGNIGDILRHDNSVGVTDPIYPVYIDSNVMCGRAGVLDTESGKWSNVTYMPCTAENHFIPAIPEKRIDIVYLCYPNNPTGTTLTKAELKKWVDYALANDTLILFDAAYEAYIREPDIPHSIYEIKGAKKCAIEFRSFSKTAGFTGVRCGYTVVPKELTAATLEGERIPLNRLWNRRQCTKFNGTSYITQRAAEAIYTPEGKEQIQETINYYMTNARIMKEGLESTGLKVYGGVNAPYLWVKTPNGTSSWRFFDQMLYEANVVGTPGVGFGPSGEGYIRLTAFGERDDCIEAMRRIKNRL
**Q.** B4 was tested. Which Km [2] did it give?
**A.** 1200 µM

**Q.** What about the Km [7] of the same protein?
**A.** 1300 µM

**Q.** And the Km [8]?
**A.** 10 µM

**Q.** And the Km [9]?
**A.** 96 µM
